Data on 2 molecules can be found in patent US20200384107A1 (PRIMATOPE THERAPEUTICS, published 2020).

Assay [1] addresses T1, human CD40, recombinant / purified (human, UniProt P25942 21-193, limits assumed).
T1 construct: also called hCD40; purified CD40
The assay can be described thus: kinetics on human CD40; Biacore by paragraph 276, Forte Bio with biotinylated CD40 on streptavidin biosensors by paragraph 270. (In general: Surface plasmon resonance follows binding to a sensor surface in real time, without labels.)

The target in assay [2] is T1, human CD40, recombinant / purified. The assay can be described thus: CD40 binding affinity, method not given; reference murine 2C10.
The target of assay [3] is T2, human CD40-MBP fusion (human, UniProt P25942 21-193; P0AEX9 27-392 = MBP, limits assumed).
T2 construct: also called CD40-MBP fusions of human
Briefly: BIACore 3000, h2C10 amine-coupled to a CM5 chip, human CD40-MBP injected at 0-160 nM. The procedure:
(§1) Humanized 2C10 antibodies (h2C10) were immobilized to the surface of CM5 chip by amine coupling. Different concentrations of CD40-MBP fusions of human, rhesus, and baboon were analyzed for affinity on a BIACore 3000. The binding affinity was calculated with BIAevaluation software version 4.1.1.

Assay [4] concerns the target T3, baboon CD40-MBP fusion (baboon, UniProt P0AEX9 27-392 = MBP).
T3 construct: also called CD40-MBP fusions of baboon; not shown: baboon CD40 part of the MBP fusion
Briefly: BIACore 3000, h2C10 amine-coupled to a CM5 chip, baboon CD40-MBP injected at 0-160 nM. The procedure: as §1

Assay [5] deals with T1, human CD40, recombinant / purified. Briefly: kinetics on human CD40, compared with parent 2C10.
The target in assay [6] is T4, rhesus CD40-MBP fusion (rhesus macaque (M. mulatta), UniProt P25942 21-120 (human entry)).
T4 construct: also called CD40-MBP fusions of rhesus
T4 chain: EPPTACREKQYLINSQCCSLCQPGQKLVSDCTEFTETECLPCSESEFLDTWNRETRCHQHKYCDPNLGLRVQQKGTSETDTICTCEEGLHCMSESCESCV
Briefly: BIACore 3000, h2C10 amine-coupled to a CM5 chip, rhesus CD40-MBP injected at 0-160 nM. The method, then:
as §1

Assay [7] concerns the target T1, human CD40, recombinant / purified. Briefly: kinetics on human CD40, compared with murine 2C10.
Assay [8] deals with T5, CD40 (as in Table 2, species and form not stated).
T5 construct: also called CD40 Receptor
The assay can be described thus: binding kinetics, method not stated.

Assay [9] has as its target T6, human CD40 on human blood B cells (CD20+ cells of PBMCs) (human, UniProt P25942 21-277).
T6 construct: whole, on cells; also called human CD20+ B cells; human B cells
Briefly: flow cytometry blocking assay: human B cells incubated with 2C10, then with histidine-tagged soluble CD154, read by histidine staining. The method, then:
To assess the ability of 2C10 to bind to both rhesus and human CD40, recombinantly expressed human or rhesus CD40 were adsorbed to ELISA plates and reacted with varying concentrations of 2C10. Binding of 2C10 to CD40 was detected using goat anti-mouse IgG-HRP in an ELISA. […] To confirm the ability of 2C10 to block binding of its cognate ligand, CD154, rhesus and human B cells were incubated with escalating concentrations of 2C10 or an isotype control and then incubated with histidine-tagged soluble CD154 (R&D Systems, Minneapolis, Minn.) and analyzed for histidine expression.
(A flow cytometer gives signals particle by particle.)

B1: humanized 2C10, clone 2.189.2 (2C10_h3 + 2C10_l2) (antibody, V domains shown)
VH: QVQLVQSGAEVKKPGASVKVSCKASGYTFTNYWMHWVRQAPGQRLEWIGYINPSNDYTKYNQKFKDRATLTADKSANTAYMELSSLRSEDTAVYYCARQGFPYWGQGTLVTVSS
VL: EIVLTQSPATLSLSPGERATLSCSASSSVSYMHWYQQKPGQAPRRWIYDTSKLASGVPARFSGSGSGTDYTLTISSLEPEDFAVYYCHQLSSDPFTFGGGTKVEIK
notes: also called h2C10; mAb 2.189.2
In general, Kd refers to the free concentration of one partner at which half of the binding sites on the other are occupied at equilibrium, for simple one-to-one binding. What is called koff is the first-order rate constant of dissociation. In general, kon refers to the rate constant with which the complex forms. Take B1: the dissociation constant Kd came to 0.39 nM in assay [1], 4.72 nM in assay [3], 2.57 nM in [4] and 2.61 nM in [6]. The koff in assay [1] turned out to be 0.000128 s⁻¹. Also, in assay [1], the kon was determined as 179000 M⁻¹ s⁻¹. In [2], the “fold of the affinity of murine 2C10” value was no more than 2 fold. The “fold reduction in affinity relative to the parent 2C10 mAb” value in assay [5] was roughly 2 fold. Further, in [7], the “fold of affinity against murine 2C10” value is no more than 2 fold.

B2: 2C10 (murine anti-CD40 monoclonal antibody) (antibody, V domains shown)
VH: QVQLQQSGAELAKPGASVKMSCKASGYTFTNYWMHWVKQRPGQGLEWIGYINPSNDYTKYNQKFKDKATLTADKSSNTAYMQLGSLTSEDSAVYYCARQGFPYWGQGTLVTVSA
VL: QIVLTQSPAIMSASPGEKVTMTCSASSSVSYMHWYHQRSGTSPKRWIYDTSKLASGVPARFSGSGSGTSYSLTISSMEAEDAATYYCHQLSSDPFTFGSGTKLEIK
notes: In some assays it was conjugated to a fluorochrome (APC); also called murine 2C10; parent 2C10 mAb
Consider B2, for which, in [1], the Kd was 0.222 nM, the koff turned out to be 6.01e-05 s⁻¹ and the kon was 148000 M⁻¹ s⁻¹. In [8], this molecule yielded a Kd of 0.273 nM, a koff of 1.86e-06 s⁻¹ and a kon of 2730 M⁻¹ s⁻¹. Further, the “IC50 (read off the curve)” value in [9] is roughly 1 µg/mL.
